# Measurements taken from the supplement of paper PMC9112550, “Optimization of the antimicrobial peptide Bac7 by deep mutational scanning” (BMC Biology, 2022).
# Tested on: Escherichia coli TOP10
# Test: shrunken log2 fold change of peptide-encoding DNA abundance (4.5 h post-induction vs induction); higher = less antimicrobial activity (less host growth inhibition)
# Conditions: time post-induction: 4.5 h; library: site-saturation at positions 5, 18, 19, 20
# 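Note: peptides expressed intracellularly from a pBAD plasmid library in pooled LB shake-flask culture, induced with 0.3% L-arabinose, DNA abundance read by NGS, three biological replicates, DESeq2 with apeglm shrinkage.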
row,Sequence,shrunken log2 fold change
1,RRIRKRPPRLPRPRPRPLVNPRP,-0.0445
2,RRIRRRPPRLPRPRPRPGCSPRP,0.344
3,RRIRFRPPRLPRPRPRPCIWPRP,0.25
4,RRIRNRPPRLPRPRPRPNPWPRP,0.107
5,RRIRCRPPRLPRPRPRPEQKPRP,-0.0751
6,RRIRWRPPRLPRPRPRPSLCPRP,0.384
7,RRIRYRPPRLPRPRPRPKPEPRP,-0.0857
8,RRIRPRPPRLPRPRPRPWWEPRP,0.0134
9,RRIRNRPPRLPRPRPRPEYGPRP,-0.284
10,RRIRDRPPRLPRPRPRPMATPRP,0.415
11,RRIRNRPPRLPRPRPRPHPDPRP,-0.15
12,RRIRPRPPRLPRPRPRPDSIPRP,-0.598
13,RRIRGRPPRLPRPRPRPNWVPRP,0.325
14,RRIRTRPPRLPRPRPRPQLCPRP,-0.0792
15,RRIRDRPPRLPRPRPRPMVYPRP,0.225
16,RRIRPRPPRLPRPRPRPRNDPRP,-0.479
17,RRIRERPPRLPRPRPRPFMTPRP,-0.438
18,RRIRGRPPRLPRPRPRPREDPRP,1.47
19,RRIRGRPPRLPRPRPRPAANPRP,0.911
20,RRIRRRPPRLPRPRPRPLFYPRP,-0.248
21,RRIRLRPPRLPRPRPRPDGDPRP,0.234
22,RRIRMRPPRLPRPRPRPIWMPRP,-0.101
23,RRIRERPPRLPRPRPRPNGIPRP,-0.115
24,RRIRCRPPRLPRPRPRPYSKPRP,-0.192
25,RRIRTRPPRLPRPRPRPNSWPRP,-0.413

row,Sequence,shrunken log2 fold change
1,RRIRDRPPRLPRPRPRPAFYPRP,-0.305
2,RRIRYRPPRLPRPRPRPPWCPRP,-0.338
3,RRIRCRPPRLPRPRPRPDGNPRP,-0.158
4,RRIRARPPRLPRPRPRPEEHPRP,-0.0106
5,RRIRDRPPRLPRPRPRPEPAPRP,0.883
6,RRIRYRPPRLPRPRPRPQLEPRP,-0.418
7,RRIRQRPPRLPRPRPRPMSVPRP,0.0173
8,RRIRPRPPRLPRPRPRPQWHPRP,-0.176
9,RRIRFRPPRLPRPRPRPFGLPRP,-0.635
10,RRIRCRPPRLPRPRPRPYNDPRP,-0.456
11,RRIRCRPPRLPRPRPRPRSQPRP,0.0629
12,RRIRMRPPRLPRPRPRPQIYPRP,-0.464
13,RRIRDRPPRLPRPRPRPIECPRP,0.279
14,RRIRMRPPRLPRPRPRPEDKPRP,2.94
15,RRIRWRPPRLPRPRPRPHSTPRP,-0.209
16,RRIRLRPPRLPRPRPRPLLRPRP,0.196
17,RRIRFRPPRLPRPRPRPTADPRP,0.359
18,RRIRCRPPRLPRPRPRPMFTPRP,-0.497
19,RRIRARPPRLPRPRPRPSDPPRP,-0.0252
20,RRIRSRPPRLPRPRPRPDIGPRP,-0.113
21,RRIRTRPPRLPRPRPRPIMTPRP,-0.0418
22,RRIRNRPPRLPRPRPRPQRWPRP,0.176
23,RRIRNRPPRLPRPRPRPTGQPRP,-0.115
24,RRIRCRPPRLPRPRPRPHREPRP,-0.0514
25,RRIRHRPPRLPRPRPRPRGCPRP,0.387

row,Sequence,shrunken log2 fold change
1,RRIRGRPPRLPRPRPRPVCPPRP,0.385
2,RRIRTRPPRLPRPRPRPYHWPRP,-0.675
3,RRIRQRPPRLPRPRPRPDWMPRP,0.0723
4,RRIRDRPPRLPRPRPRPVWLPRP,0.105
5,RRIRFRPPRLPRPRPRPSFVPRP,-0.828
6,RRIRRRPPRLPRPRPRPTLKPRP,0.379
7,RRIRRRPPRLPRPRPRPSQEPRP,-0.225
8,RRIRLRPPRLPRPRPRPPEQPRP,-0.0138
9,RRIRVRPPRLPRPRPRPSDYPRP,-0.673
10,RRIRMRPPRLPRPRPRPSREPRP,0.545
11,RRIRMRPPRLPRPRPRPKADPRP,2.35
12,RRIRMRPPRLPRPRPRPRDEPRP,1.43
13,RRIRCRPPRLPRPRPRPMAFPRP,-0.22
14,RRIRHRPPRLPRPRPRPQQCPRP,-0.0705
15,RRIRIRPPRLPRPRPRPIRVPRP,-0.0611
16,RRIRKRPPRLPRPRPRPDILPRP,0.0039
17,RRIRDRPPRLPRPRPRPNGRPRP,0.00232
18,RRIRGRPPRLPRPRPRPENAPRP,1.03
19,RRIRYRPPRLPRPRPRPNHYPRP,-0.739
20,RRIRFRPPRLPRPRPRPEWPPRP,0.459
21,RRIRTRPPRLPRPRPRPGHYPRP,-0.137
22,RRIRCRPPRLPRPRPRPTTHPRP,-0.0573
23,RRIRSRPPRLPRPRPRPQEGPRP,-0.0317
24,RRIRLRPPRLPRPRPRPFASPRP,-0.062
25,RRIRVRPPRLPRPRPRPEAAPRP,0.635

row,Sequence,shrunken log2 fold change
1,RRIRHRPPRLPRPRPRPSREPRP,0.0138
2,RRIRERPPRLPRPRPRPKFEPRP,-0.0495
3,RRIRVRPPRLPRPRPRPVVQPRP,-0.039
4,RRIRRRPPRLPRPRPRPIPEPRP,0.12
5,RRIRLRPPRLPRPRPRPLKDPRP,-0.0949
6,RRIRGRPPRLPRPRPRPQWGPRP,0.376
7,RRIRERPPRLPRPRPRPPHVPRP,-0.362
8,RRIRQRPPRLPRPRPRPKPFPRP,-0.101
9,RRIRYRPPRLPRPRPRPDSHPRP,-0.782
10,RRIRERPPRLPRPRPRPVRNPRP,-0.41
11,RRIRCRPPRLPRPRPRPSEIPRP,-0.321
12,RRIRIRPPRLPRPRPRPDNLPRP,-0.00843
13,RRIRGRPPRLPRPRPRPFGGPRP,0.401
14,RRIRERPPRLPRPRPRPCCTPRP,-0.243
15,RRIRQRPPRLPRPRPRPPWIPRP,-0.145
16,RRIRNRPPRLPRPRPRPLHCPRP,-0.168
17,RRIRLRPPRLPRPRPRPLMFPRP,-0.215
18,RRIRQRPPRLPRPRPRPDQRPRP,-0.00141
19,RRIRIRPPRLPRPRPRPSKCPRP,-0.788
20,RRIRFRPPRLPRPRPRPMSMPRP,0.00945
21,RRIRGRPPRLPRPRPRPVIIPRP,2.29
22,RRIRERPPRLPRPRPRPKYYPRP,-0.183
23,RRIRERPPRLPRPRPRPTDEPRP,-0.0552
24,RRIRDRPPRLPRPRPRPGICPRP,-0.0538
25,RRIRSRPPRLPRPRPRPMNGPRP,-0.205

row,Sequence,shrunken log2 fold change
1,RRIRDRPPRLPRPRPRPVLFPRP,0.13
2,RRIRWRPPRLPRPRPRPEIGPRP,0.0225
3,RRIRVRPPRLPRPRPRPFHRPRP,-0.0437
4,RRIRSRPPRLPRPRPRPAWYPRP,-0.3
5,RRIRNRPPRLPRPRPRPGGLPRP,-0.13
6,RRIRLRPPRLPRPRPRPGKVPRP,-0.0116
7,RRIRERPPRLPRPRPRPQAPPRP,-0.0683
8,RRIRSRPPRLPRPRPRPCESPRP,-0.0178
9,RRIRYRPPRLPRPRPRPFFNPRP,-0.811
10,RRIRFRPPRLPRPRPRPANEPRP,0.0451
11,RRIRCRPPRLPRPRPRPLYKPRP,-0.275
12,RRIRERPPRLPRPRPRPETAPRP,0.0892
13,RRIRVRPPRLPRPRPRPQKCPRP,-0.0983
14,RRIRLRPPRLPRPRPRPETDPRP,0.0033
15,RRIRQRPPRLPRPRPRPHNNPRP,-0.748
16,RRIRCRPPRLPRPRPRPMTAPRP,0.0275
17,RRIRRRPPRLPRPRPRPDAKPRP,0.644
18,RRIRNRPPRLPRPRPRPILQPRP,-0.387
19,RRIRARPPRLPRPRPRPMKDPRP,0.0565
20,RRIRDRPPRLPRPRPRPFIIPRP,-0.348
21,RRIRSRPPRLPRPRPRPFPDPRP,-0.319
22,RRIRPRPPRLPRPRPRPEVQPRP,0.0715
23,RRIRHRPPRLPRPRPRPMGKPRP,-0.189
24,RRIRFRPPRLPRPRPRPDEDPRP,0.181
25,RRIRFRPPRLPRPRPRPRQDPRP,0.253

row,Sequence,shrunken log2 fold change
1,RRIRWRPPRLPRPRPRPHTEPRP,-0.0123
2,RRIRDRPPRLPRPRPRPPFGPRP,0.225
3,RRIRFRPPRLPRPRPRPHVVPRP,-0.0249
4,RRIRCRPPRLPRPRPRPAQHPRP,0.0537
5,RRIRFRPPRLPRPRPRPDSLPRP,-0.204
6,RRIRLRPPRLPRPRPRPLVRPRP,-0.105
7,RRIRVRPPRLPRPRPRPPYSPRP,-0.384
8,RRIRYRPPRLPRPRPRPNSYPRP,-2.3
9,RRIRWRPPRLPRPRPRPAIEPRP,-0.04
10,RRIRFRPPRLPRPRPRPIHWPRP,-0.414
11,RRIRTRPPRLPRPRPRPLNQPRP,-0.417
12,RRIRIRPPRLPRPRPRPSPWPRP,-0.34
13,RRIRVRPPRLPRPRPRPRSGPRP,0.322
14,RRIRHRPPRLPRPRPRPCHPPRP,-0.01
15,RRIRARPPRLPRPRPRPNPAPRP,0.796
16,RRIRVRPPRLPRPRPRPKGQPRP,0.147
17,RRIRQRPPRLPRPRPRPIWQPRP,-0.049
18,RRIRNRPPRLPRPRPRPEQYPRP,-0.153
19,RRIRMRPPRLPRPRPRPRYDPRP,0.185
20,RRIRCRPPRLPRPRPRPCRTPRP,-0.168
21,RRIRYRPPRLPRPRPRPTPSPRP,0.421
22,RRIRGRPPRLPRPRPRPTVNPRP,0.597
23,RRIRTRPPRLPRPRPRPENMPRP,-0.468
24,RRIRNRPPRLPRPRPRPTKMPRP,0.00053
25,RRIRPRPPRLPRPRPRPFDYPRP,-0.391
